Assay results: patent publication US20230173037A1, “Manipulating Glycogen in Alzheimer’s Disease, Epilepsy, Traumatic Brain Injury, and ALS as a Treatment” (University of Kentucky Research Foundation, priority 2020, published 2023)

Assay: Activity of enzymes to degrade glycogen under neutral pH
Type: biochemical
Details: neutral pH of the cellular environment

B1: human pancreatic α-amylase: enzyme component of VAL-0417, degrades glycogen (protein, UniProt P04746 16-511, looked up)
Pancreatic alpha-amylase: QYSPNTQQGRTSIVHLFEWRWVDIALECERYLAPKGFGGVQVSPPNENVAIYNPFRPWWERYQPVSYKLCTRSGNEDEFRNMVTRCNNVGVRIYVDAVINHMCGNAVSAGTSSTCGSYFNPGSRDFPAVPYSGWDFNDGKCKTGSGDIENYNDATQVRDCRLTGLLDLALEKDYVRSKIAEYMNHLIDIGVAGFRLDASKHMWPGDIKAILDKLHNLNSNWFPAGSKPFIYQEVIDLGGEPIKSSDYFGNGRVTEFKYGAKLGTVIRKWNGEKMSYLKNWGEGWGFVPSDRALVFVDNHDNQRGHGAGGASILTFWDARLYKMAVGFMLAHPYGFTRVMSSYRWPRQFQNGNDVNDWVGPPNNNGVIKEVTINPDTTCGNDWVCEHRWRQIRNMVIFRNVVDGQPFTNWYDNGSNQVAFGRGNRGFIVFNNDDWSFSLTLQTGLPAGTYCDVISGDKINGNCTGIKIYVSDDGKAHFSISNSAEDPFIAIHAESKL
For B1, which “activity to degrade glycogen” value is on record?
Its value is “best activity”.
